For the test, the target named is low-density lipoprotein receptor-related protein 1 (mouse (endogenous in bEnd3)). As to the kind of experiment: proximity ligation.

These results are taken from publication doi:10.1101/2020.07.12.199869.

low-density lipoprotein receptor-related protein 1 (mouse (endogenous in bEnd3)), sequence (Q91ZX7 20-4545): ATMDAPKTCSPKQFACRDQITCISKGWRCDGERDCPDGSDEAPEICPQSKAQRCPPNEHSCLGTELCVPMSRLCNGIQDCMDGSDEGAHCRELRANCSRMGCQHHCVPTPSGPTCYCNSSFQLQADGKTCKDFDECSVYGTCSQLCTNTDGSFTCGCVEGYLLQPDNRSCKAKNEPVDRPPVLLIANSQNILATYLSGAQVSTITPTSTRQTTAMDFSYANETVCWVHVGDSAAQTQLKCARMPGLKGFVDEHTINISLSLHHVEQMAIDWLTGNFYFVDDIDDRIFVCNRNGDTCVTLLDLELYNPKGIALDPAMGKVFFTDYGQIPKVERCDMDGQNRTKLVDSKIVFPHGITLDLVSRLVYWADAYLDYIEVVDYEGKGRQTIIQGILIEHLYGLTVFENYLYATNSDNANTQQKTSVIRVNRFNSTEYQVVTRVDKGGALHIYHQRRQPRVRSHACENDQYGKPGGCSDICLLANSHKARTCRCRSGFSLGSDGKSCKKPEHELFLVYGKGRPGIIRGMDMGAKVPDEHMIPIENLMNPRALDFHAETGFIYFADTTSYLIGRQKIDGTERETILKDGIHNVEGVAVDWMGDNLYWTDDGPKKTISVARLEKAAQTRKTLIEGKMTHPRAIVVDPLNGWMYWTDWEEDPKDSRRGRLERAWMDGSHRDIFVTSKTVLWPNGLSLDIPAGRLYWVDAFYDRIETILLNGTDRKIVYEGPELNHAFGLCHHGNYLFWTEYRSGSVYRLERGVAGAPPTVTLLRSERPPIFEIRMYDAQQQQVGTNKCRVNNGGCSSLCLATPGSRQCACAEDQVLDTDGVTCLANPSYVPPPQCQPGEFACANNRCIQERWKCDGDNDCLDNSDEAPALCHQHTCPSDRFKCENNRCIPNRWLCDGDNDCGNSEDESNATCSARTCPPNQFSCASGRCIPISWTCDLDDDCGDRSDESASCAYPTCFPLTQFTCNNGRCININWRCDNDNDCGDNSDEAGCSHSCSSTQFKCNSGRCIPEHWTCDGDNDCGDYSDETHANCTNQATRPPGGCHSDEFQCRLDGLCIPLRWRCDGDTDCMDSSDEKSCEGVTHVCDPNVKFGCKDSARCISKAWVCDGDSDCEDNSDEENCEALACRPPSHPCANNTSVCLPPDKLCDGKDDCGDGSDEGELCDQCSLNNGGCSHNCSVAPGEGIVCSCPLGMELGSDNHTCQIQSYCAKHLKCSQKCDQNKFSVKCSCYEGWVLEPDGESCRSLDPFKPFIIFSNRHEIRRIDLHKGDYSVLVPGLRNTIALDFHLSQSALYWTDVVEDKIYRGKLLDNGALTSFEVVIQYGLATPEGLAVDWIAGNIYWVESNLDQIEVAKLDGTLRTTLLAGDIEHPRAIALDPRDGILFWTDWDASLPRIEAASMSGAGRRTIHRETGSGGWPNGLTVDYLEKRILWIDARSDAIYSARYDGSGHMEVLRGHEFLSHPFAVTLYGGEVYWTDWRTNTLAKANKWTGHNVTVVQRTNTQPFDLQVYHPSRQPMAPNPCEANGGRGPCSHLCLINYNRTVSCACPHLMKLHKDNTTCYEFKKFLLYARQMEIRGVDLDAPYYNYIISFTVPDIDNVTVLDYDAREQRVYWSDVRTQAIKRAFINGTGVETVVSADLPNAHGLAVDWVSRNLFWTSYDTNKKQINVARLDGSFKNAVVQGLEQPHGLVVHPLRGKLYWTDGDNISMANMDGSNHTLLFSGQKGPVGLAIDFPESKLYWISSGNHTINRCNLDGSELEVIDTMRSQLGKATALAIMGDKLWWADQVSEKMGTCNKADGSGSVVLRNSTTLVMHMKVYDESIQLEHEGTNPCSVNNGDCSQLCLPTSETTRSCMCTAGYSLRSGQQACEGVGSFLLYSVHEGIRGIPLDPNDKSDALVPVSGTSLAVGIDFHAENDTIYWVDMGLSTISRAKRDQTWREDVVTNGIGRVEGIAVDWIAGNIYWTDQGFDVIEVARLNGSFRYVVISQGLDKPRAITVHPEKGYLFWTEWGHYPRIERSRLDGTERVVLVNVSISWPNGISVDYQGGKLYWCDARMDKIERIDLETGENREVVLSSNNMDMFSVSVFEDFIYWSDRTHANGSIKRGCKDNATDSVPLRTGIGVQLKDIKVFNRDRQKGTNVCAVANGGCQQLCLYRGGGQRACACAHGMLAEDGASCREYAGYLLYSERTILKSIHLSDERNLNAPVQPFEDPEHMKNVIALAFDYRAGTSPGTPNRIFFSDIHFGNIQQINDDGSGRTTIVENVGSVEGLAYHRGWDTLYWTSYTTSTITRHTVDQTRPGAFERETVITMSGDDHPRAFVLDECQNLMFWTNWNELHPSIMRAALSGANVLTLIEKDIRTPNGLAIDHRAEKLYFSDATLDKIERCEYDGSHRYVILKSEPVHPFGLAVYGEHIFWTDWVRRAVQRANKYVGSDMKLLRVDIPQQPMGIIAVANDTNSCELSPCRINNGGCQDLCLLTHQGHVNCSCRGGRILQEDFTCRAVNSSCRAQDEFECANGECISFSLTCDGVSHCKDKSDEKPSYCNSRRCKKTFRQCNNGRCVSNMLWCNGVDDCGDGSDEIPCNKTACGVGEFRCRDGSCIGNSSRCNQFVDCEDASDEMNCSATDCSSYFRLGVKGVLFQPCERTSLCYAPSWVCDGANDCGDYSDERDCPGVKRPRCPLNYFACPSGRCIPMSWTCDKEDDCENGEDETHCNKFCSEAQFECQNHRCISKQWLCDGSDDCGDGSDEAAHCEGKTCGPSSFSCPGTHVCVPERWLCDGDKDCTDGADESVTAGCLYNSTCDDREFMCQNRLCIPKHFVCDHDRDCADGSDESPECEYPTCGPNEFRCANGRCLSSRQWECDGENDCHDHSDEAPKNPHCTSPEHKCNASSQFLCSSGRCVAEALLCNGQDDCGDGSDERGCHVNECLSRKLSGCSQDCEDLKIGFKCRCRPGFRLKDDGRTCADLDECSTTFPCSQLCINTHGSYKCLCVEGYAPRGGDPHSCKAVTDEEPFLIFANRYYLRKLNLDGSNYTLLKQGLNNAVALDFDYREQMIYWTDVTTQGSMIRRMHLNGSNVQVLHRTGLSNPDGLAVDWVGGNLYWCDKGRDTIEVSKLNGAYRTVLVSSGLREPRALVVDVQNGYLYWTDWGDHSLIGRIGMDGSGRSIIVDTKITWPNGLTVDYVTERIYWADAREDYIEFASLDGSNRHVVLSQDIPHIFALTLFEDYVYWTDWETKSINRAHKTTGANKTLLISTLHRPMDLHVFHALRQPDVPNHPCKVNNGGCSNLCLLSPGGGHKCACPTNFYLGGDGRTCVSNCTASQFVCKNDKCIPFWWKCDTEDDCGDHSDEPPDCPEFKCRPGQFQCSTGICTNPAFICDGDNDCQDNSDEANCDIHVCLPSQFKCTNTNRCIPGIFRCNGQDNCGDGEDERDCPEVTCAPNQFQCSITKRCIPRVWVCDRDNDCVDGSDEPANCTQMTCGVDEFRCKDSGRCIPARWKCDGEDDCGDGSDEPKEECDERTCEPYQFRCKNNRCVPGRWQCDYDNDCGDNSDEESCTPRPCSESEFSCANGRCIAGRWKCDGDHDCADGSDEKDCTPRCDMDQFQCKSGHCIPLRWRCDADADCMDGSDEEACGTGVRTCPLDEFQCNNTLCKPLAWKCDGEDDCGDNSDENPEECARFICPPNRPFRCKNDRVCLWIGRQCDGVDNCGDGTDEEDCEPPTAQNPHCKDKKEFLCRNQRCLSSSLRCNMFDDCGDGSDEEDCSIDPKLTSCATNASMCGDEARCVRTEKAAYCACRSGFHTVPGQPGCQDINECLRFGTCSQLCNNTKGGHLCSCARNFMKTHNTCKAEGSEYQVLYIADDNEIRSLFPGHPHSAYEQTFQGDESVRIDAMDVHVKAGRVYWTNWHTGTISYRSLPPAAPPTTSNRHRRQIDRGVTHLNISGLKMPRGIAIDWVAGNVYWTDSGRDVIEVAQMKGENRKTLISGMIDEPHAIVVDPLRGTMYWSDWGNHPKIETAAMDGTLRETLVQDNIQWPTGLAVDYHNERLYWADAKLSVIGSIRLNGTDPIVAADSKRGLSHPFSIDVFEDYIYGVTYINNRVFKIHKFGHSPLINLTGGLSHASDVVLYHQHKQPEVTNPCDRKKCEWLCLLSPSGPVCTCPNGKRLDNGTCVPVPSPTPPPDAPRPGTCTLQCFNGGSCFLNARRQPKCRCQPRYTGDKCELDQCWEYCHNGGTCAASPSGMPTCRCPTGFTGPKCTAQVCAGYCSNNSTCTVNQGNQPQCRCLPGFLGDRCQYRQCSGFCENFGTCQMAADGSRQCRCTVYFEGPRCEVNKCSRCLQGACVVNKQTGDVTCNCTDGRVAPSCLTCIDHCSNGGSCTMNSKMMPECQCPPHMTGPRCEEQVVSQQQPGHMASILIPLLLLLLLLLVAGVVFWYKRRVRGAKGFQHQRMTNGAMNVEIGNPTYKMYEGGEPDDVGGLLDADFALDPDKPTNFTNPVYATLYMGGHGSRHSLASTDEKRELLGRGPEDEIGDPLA

On to “syndapin-2 (from UniProt Q9WVE8 1-486) (natural protein)”, for which the PLA dots per cell (dots per cell) was determined as 250.

B1: apolipoprotein E (ligand)
chain: EGEPEVTDQLEWQSNQPWEQALNRFWDYLRWVQTLSDQVQEELQSSQVTQELTALMEDTMTEVKAYKKELEEQLGPVAEETRARLGKEVQAAQARLGADMEDLRNRLGQYRNEVHTMLGQSTEEIRARLSTHLRKMRKRLMRDAEDLQKRLAVYKAGAREGAERGVSAIRERLGPLVEQGRQRTANLGAGAAQPLRDRAQAFGDRIRGRLEEVGNQARDRLEEVREHMEEVRSKMEEQTQQIRLQAEIFQARLKGWFEPIVEDMHRQWANLMEKIQASVATNPIITPVAQENQ
B1: the PLA dots per cell (dots per cell) was 80.
